Assay results from the DeepSol protein solubility set.

Assay: soluble on expression in E. coli; label from the status in PepcDB or PDB records

Sequence | soluble on expression in E. coli
MGSDKIHHHHHHMDRSYRTPKAWLTKTSGFLQGYDYSLNPYVGCTFACSYCYVRKMPVALFHKGEWGDWVDIKQGVKETFSNELVRAKKRGRVHLFMSSSTDPYQPVEVEEKVTRSLLEVMADNPPDFLFVQTRSPLVTRDVDILQQLGKRVRVSLTIETDLESVRKAFAPKAPPIQGRKRALHALYQAGIPTQLTVAPILPSSDRFAESYVSIADQVCIDTFELGDGANGKRSRALRMPERLTELGYESWYEEAALEKVHQQFCAHFDESRVKLSQEGFLP | not soluble
MLAHIKITHFAIVKSLELDLTKGMTTITGETGAGKSIAIDALGLCLGDRAEASMVRQGEEKAEITVLFTLENNINAKRWLEDNELYDGNDCILRRVITKEGRSRGFINGSPVPAAQLKTLGHLLINIHGQHAHHELMKPEYQLNMLDQYAGHVSLLNKTRSRYQAWRQA | not soluble
MGLLKDLSSARDKIERIYGLNKEKLLLLAKVKEGFETSVFDFPFKNIQPDSPYFVCLDPPCKKESAYNKVIGDKNRTVYHEINKTEFENMIKLRTKRLKLLIGEVDAEVSTGDKIEFPVLANGKRRGFIYNVGGLVTDIAWLNIEENTDIGKDIQYLAVAVSQYMDEPLNEHLEMFDKEKHSSCIQIFKMNTSTLHCVKVQTIVHSFGEVWDLKWHEGCHAPHLVGCLSFVSQEGTINFLEIIDNATDVHVFKMCEKPSLTLSLADSLITTFDFLSPTTVVCGFKNGFVAEFDLTDPEVPSFYDQVHDSYILSVSTAYSDFEDTVVSTVAVDGYFYIFNPKDIATTKTTVSRFRGSNLVPVVYCPQIYSYIYSDGASSLRAVPSRAAFAVHPLVSRETTITAIGVSRLHPMVLAGSADGSLIITNAARRLLHGIKNSSATQKSLRLWKWDYSIKDDKYRIDSSYEVYPLTVNDVSKAKIDAHGINITCTKWNETSAGGKCYAFSNSAGLLTLEYLSLEHHHHHH | soluble
VVKRSRATRLSPSIWSGWESPQCRSIRARLLLPRGRSRPPNADCCWNQLAVTPDTRMPASSAAGRDAAAYDAWYDSPTGRPILATEVAALRPLIEVFAQPRLEIGVGTGRFADLLGVRFGLDPSRDALMFARRRGVLVANAVGEAVPFVSRHFGAVLMAFTLCFVTDPAAIFRETRRLLADGGGLVIGFLPRGTPWADLYALRAARGQPGYRDARFYTAAELEQLLADSGFRVIARRCTLHQPPGLARYDIEAAHDGIQAGAGFVAISAVDQAHEPKDDHPLESE | not soluble
MDWEERENPKRLVKTFAFPNFREALDFANRVGALAERENHHPRLTVEWGRVTVEWWTHSAGGVTEKDREMARLTDALLQR | soluble
MSYNLNLSHNIYKDAKLGTYYFRITYYDKSNTRKYITRKGFKQRKDAVKKCNEMMDELEGVGHLNRLPFDKLVEEYIDWYSARRKTSSVKALKTHTNNHLLPYFKSMDVFKMTTQDVMKFQNKKLKEGHSGDYLKKMHVYLVSLLNHAMKFHELKQNVASLVGNFEIESQKRLNYWTLEQFNQFYEALATQQQKLFFKLLFYSGARKGEIRALTWRDINFDDDFIHINKTDYHGEVTAPKTKSAIRDIYLPTHMMYDIKDYLIWYKENNIYKDDYVLFGTFYKAYSESTIDRW | not soluble
MGCCQSKKARNNQRNNQRSDQMNRQHTQPSPNASTEQMAYPRQQPQGIPQGPPPAYAPPAAPKAPEKVVEPKNRRVTIAEPPERVAEPSPTPEDPELFTCIDQTEKEVEKEVEKRKSAPRAPVPAPTPAPQAAPQATPAAPAQAYPQQQQAAPVVYGSQPMVMGAAPVAPVVMAPPPVIMSPYPYYGGGVMFDPYYNGFYGGYGYGGFDFGYGGYGGYGCGFY | not soluble
MPELSETAERSQSNTPLAMIMDDSDIDYQRFQELVASTDSLAILCHDNPDPDTLASALALEAIAKEWEVPTVDIVYGGTVTHQQNRAMINVLDIELTPIDQVSLSDYGLVAFVDHGIPGQNNSAVEEMTPDIIIDHHPTDGLQGQFVDLRPAVGATATLLTRYLEIFSIELEERLATALLFALHRETLDFNRETTSTEHAAACVLHPHADHNIIEELTNSVFTPETISGIGDAIANREVRGSCLVSSLGWIRERDAVPQAADYLLQLEGVSTTIVYGIVDDNVHLSGRTSNSQLHIGNVMEETFDQVGSAGGHHDMAGGQVPLGFIGSVDDGDDVAIDLINQSMMARLFGALEGWTET | not soluble
MSIVAKSYEESADPVVAYCAEHTAVQTPLQAELQKETLTNAPHSGMLGAPEVLTFGENFIKFLGAKRVLDVGTFTGASALAWALAVPDDGEVFTFDIDHANYRKFGVPILSKCEKTFKKIKPVEGPGVESLDKLIADGQSGTFDFAFIDADKANYSNYYEKCVSLLRKGGVIFVDNSLWDGAVCDPAKRTDPRTAAIHEMNDKIYQDDRTYSALLNLGDGIHMAFKK | not soluble
AKYYNEPCHTFNEYLLIPGLSTVDCIPSNVNLSTPLVKFQKGQQSEINLKIPLVSAIMQSVSGEKMAIALAREGGISFIFGSQSIESQAAMVHAVKNFKDSQKRYLVGAGINTRDFRERVPALVEAGADVLCIDSSDGFSEWQKITIGWIRDKYGDKVKVGAGNIVDGEGFRYLADAGADFIKIGIGGGSICITREQKGIGRGQATAVIDVVAERNKYFEETGIYIPVCSDGGIVYDYHMTLALAMGADFIMLGRYFARFEESPTRKVTINGSVMKEYWGEGSSRARNWQRYDLGGKQKLSFEEGVDSYVPYAGKLKDNVEASLNKVKSTMCNCGALTIPQLQSKAKITLVSSVSIVEGGAHDVIVKDRINDYHPK | soluble
MGSDKIHHHHHHMSVTQIVTSEDILLKLCHSVSHVLSHTSGSRVTHAAMVQNISSTRLKPDLGCFSIFDGGFSGLVVINFSAASAVEIYRRYMLNMGMPESDLAFSHNSDEVGNVMGELMNQILGDFIGKVSKELQTSISQSQPKMLTINKEITISIDANLDEPVIRRVSFMTESNHIFYLEFAMDKTEFVKTREFELDEEFDPDFLIEQHGNTRSPWSQMAGKGIVADDADDLLDELGI | not soluble
MTAESGGRDWTGADLAVVVGDYVAQLEKVLAGKPVDRAAHDRTVRFVTGKADGPISWKQGEISAVLSLIGVPILKDQPPRWAYDNALLDAVEEQLAAKPALLAAAVRPAALFTAPSAVPLIEAAPPKPMPMTQRLIQAIQRFDMGSREADDRFLKGLGIASIVAHEARRLSDRGRPDLAGAIRPARGGDPEGCDVISFGLDEIPRLIVVKTTLAGEVAPFGLSQAEYELSRAQPHAFRIRRVYDLLGEARFYRLKPPFGLEHHHHHH | not soluble
GPGSMIMKASGAAVLHAVREKMQEATVAALIVTSSDAHNSEYVATHLQSRAFISHFQGSAGTALITMEKALLWTDGRYWLAAEEEKYPEFDLMKQGQPEVPSLEEWIAANLGSKAVVGMSPYVATVAEWERLSKKINLRPVANIVQDMMPPEKSVRKMYVRPAEFCGATCQERRAAILAELEKKDCDMIILSALDEIAWFTNLRGGDVDYNPVFYAYAVIDKHYENVRLYVNLDKVTDAVRQACEDHIDFYPYEQFEADLKQLPRGRKALVDERQTSEAVFRILKDVGTVTVRVVCGPAQKLKAIKNEVELKGFRDCHVRDGAALTRYLAWLHDQVANKGVTDLNEYDAATKLEEFRAQGEHFVQLSFGSISSIGPNGAMCHYSPAETGSAAIRRDQLYLIDSGAHYWDGTTDVTRTICFTAPSDEQREAYTLVLKGHIALNSIIFPKGTSGVRLDTLARMALWGVGLDYAHGTGHGVGSFLNVHEGPHGISTRPVATGANMELHSIVSNEPGYYKDGHYGIRIENLEEVVECRTKYSATGFYTMSHLTMAPLCRDLIDVSLLTETERAWVDRYHAKVVASIMPHLQQAGDQNAVEYLKYHTRPLFAVNEAYTLLSPDGKGAK | not soluble
MLFFETDATLALWGEAVLAATWAEFPQLARNQLALTWIVYDDPVPVNTGGAIAPQSFWSLPIRGFHYRGDEAIYPASVVKLFYLVAALEWLQQGMIQPSAELDRALRDMIVDSSNDATGYIVDLLSGTTSGPELGDGPFKTWQFQRNIVNRYYQSLMWPELQPINVNQKTWGDGPYGRERAFYGPEFENRNKLTTNATARLLHAIAGGVAVSPSASQRMLNLLNRPFDPRSLAEDPENQVTGFLGQDLPQGSQLWSKAGWMSRVRHDAAYLEIPGLPPHLLVAFTEGKEHANNEAILPFIAQQVRQQLQPALEHHHHHH | soluble
EAGAPCGRISFALRYLYGSDQLVVRILQALDLPAKDSNGFSDPYVKIYLLPDRKKKFQTKVHRKTLNPIFNETFQFSVPLAELAQRKLHFSVYDFDRFSRHDLIGQVVLDNLLELAEQPPDRPLWRDILEGGSEKADLGELNFSLCYLPTAGLLTVTIIKASNLKAMDLTGFSDPYVKASLISEGRRLKKRKTSIKKNTLNPTYNEALVFDVAPESVENVGLSIAVVDYDCIGHNEVIGVCRVGPEAADPHGREHWAEMLANPRKPVEHWHQLVEEKTLSSFTKGGKGLSEKENSE | soluble
MTNEAIQNREPFLQNLREKLDVEKQPVSAHPFEPVNHLPEEQLADKTPAELLTIVKERVETIHTNLVETTQENLLTTIQQIVAEFGGDNLLLPTDARFEAYGLADLAKSLEAVSVKQWQPGSEQREANIQTAAQANIAIAFAEFLLAESGTIVVESNAGQGRALHFLPKHYISIIPFSKLVPRSTQPAAFYTEKIEKGEKIGSAIHFISGPSNSGDIEMQLVVGLHGPLEVCYVVVMDR | not soluble
MVALQIPSLAATVRQDFPILNQEINGHPLVYLDNAATSQKPRAVLEKLMHYYENDNANVHRGAHQLSVRATDAYEAVRNKVAKFINARSPREIVYTRNATEAINLVAYSWGMNNLKAGDEIITTVMEHHSNLVPWQMVAAKTGAVLKFVQLDEQESFDLEHFKTLLSEKTKLVTVVHISNTLGCVNPAEEIAQLAHQAGAKVLVDACQSAPHYPLDVQLIDCDWLVASGHKMCAPTGIGFLYGKEEILEAMPPFFGGGEMIAEVFFDHFTTGELPHKFEAGTPAIAEAIALGAAVDYLTDLGMENIHNYEVELTHYLWQGLGQIPQLRLYGPNPKHGDRAALASFNVAGLHASDVATMVDQDGIAIRSGHHCTQPLHRLFDASGSARASLYFYNTKEEIDLFLQSLQATIRFFSDDDFTV | soluble
MERTGFLEYVLNYVKKGVELGGFPEDFYKILSRPRRVLIVNIPVRLDGGGFEVFEGYRVQHCDVLGPYKGGVRFHPEVTLADDVALAILMTLKNSLAGLPYGGAKGAVRVDPKKLSQRELEELSRGYARAIAPLIGDVVDIPAPDVGTNAQIMAWMVDEYSKIKGYNVPGVFTSKPPELWGNPVREYATGFGVAVATREMAKKLWGGIEGKTVAIQGMGNVGRWTAYWLEKMGAKVIAVSDINGVAYRKEGLNVELIQKNKGLTGPALVELFTTKDNAEFVKNPDAIFKLDVDIFVPAAIENVIRGDNAGLVKARLVVEGANGPTTPEAERILYERGVVVVPDILANAGGVIMSYLEWVENLQWYIWDEEETRKRLENIMVNNVERVYKRWQREKGWTMRDAAIVTALERIYNAMKIRGWI | soluble
MSFALLMASGGLDSTTVAYWLTERGVQFIPVFFDYGQHCVETEWETLKEVLPASAAHPERNDISDLFRGSKSRLITEADLWNEEVKDEDLYVPYRTLLFYSAAAARAQTLGAFEVYTGFINSNRAKEIDCTAEFMNKLDALTDSVGPVRFLSPFRFWSKSEVAKESIRLGVPIGRTFSCQAASLMPCGACPNCVERLAALRETGLLA | not soluble
EEKVVAEQQADGTWLMDGWISIRKASNLLEHDLVDEAERYSTLGGYLLWQFGYIPAAGEQITVDGLIFEIVSVNKHNIGKVRVHRTQ | soluble
MCGRFVITSAPAAIRQLFGYADQPNFPSRYNIAPTQPVPVVIVDEGARRFRLMRWGLIPSWVKDPRMFSLLINARADTIQDKPAFRNAFRRRRCLVPADGYYEWKAGGSRKQPYFIHPAGGGPIGFAALWETWTGPNGEELDTVAIVTTAARGGLADLHDRVPVTIAPHHFARWLETDETDTEAVMALLGPPGEGEFVWHPVSTAVNRTANDNPQLILPIAAEEVEAPPPAVAKPAPPKRAARPKISADDSGQGSLFLEHHHHHH | soluble
